The results in this text go back to PMC5676948, “Inactivation mechanism of N61S mutant of human FMO3 towards trimethylamine” (Scientific Reports, 2017).

The target of data set [1] is T1, human flavin-containing monooxygenase 3 (hFMO3), wild type (Homo sapiens, UniProt P31513).
T1 construct: gene FMO3
T1 sequence (P31513 2-532): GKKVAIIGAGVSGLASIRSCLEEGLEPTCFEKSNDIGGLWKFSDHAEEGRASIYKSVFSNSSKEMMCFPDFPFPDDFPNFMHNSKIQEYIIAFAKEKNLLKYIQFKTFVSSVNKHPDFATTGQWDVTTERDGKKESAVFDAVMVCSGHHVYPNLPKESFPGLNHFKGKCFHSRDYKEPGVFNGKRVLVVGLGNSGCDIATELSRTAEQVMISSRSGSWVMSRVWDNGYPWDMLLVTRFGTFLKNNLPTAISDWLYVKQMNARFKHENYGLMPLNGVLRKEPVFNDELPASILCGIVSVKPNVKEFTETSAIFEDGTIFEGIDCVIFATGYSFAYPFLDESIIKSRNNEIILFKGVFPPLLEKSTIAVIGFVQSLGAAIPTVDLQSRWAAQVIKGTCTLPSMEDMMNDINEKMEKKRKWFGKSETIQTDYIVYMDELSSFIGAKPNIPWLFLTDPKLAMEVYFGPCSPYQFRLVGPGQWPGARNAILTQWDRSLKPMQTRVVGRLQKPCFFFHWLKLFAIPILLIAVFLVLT
Description: ITC (supported by CD and DSC thermal shifts and trypsin protection). The class given is binding. Background: Differential scanning calorimetry records heat flow against a reference as temperature is scanned.

Data set [2] has as its target T2, human flavin-containing monooxygenase 3 (hFMO3), N61S variant (Homo sapiens, UniProt P31513, N61S).
T2 construct: gene FMO3
T2 sequence (P31513 2-532 N61S): T1 sequence (P31513 2-532) with N60S
The data set is described as follows: stopped-flow anaerobic FAD reduction at […] nm, Kd from kobs vs [NADPH]. Conditions: read-out: Reduction / K d,NADPH /. The class given is biochemical.

In data set [3] the target is T1, human flavin-containing monooxygenase 3 (hFMO3), wild type. The data set is described as above. The class given is biochemical. Conditions: read-out: Reduction / K d,NADPH /.
Substrate in data set [4]: CC/C(=C(\c1ccccc1)c1ccc(OCCN(C)C)cc1)c1ccccc1
Description: purified protein. Conditions: FAD, NADPH.

Substrate in data set [5]: CN(C)CCCOc1nn(Cc2ccccc2)c2ccccc12
The data set is described as follows: purified protein. The conditions noted are these: FAD, NADPH.

Substrate in data set [6]: Cn1cc[nH]c1=S
Description: purified protein. The conditions noted are these: FAD, NADPH.

Substrate in data set [7]: CN(C)C
Description: purified protein. The class given is biochemical, Homo sapiens. The conditions noted are these: FAD, NADPH.

Changes are numbered by the printed parent chain. Numbers in names are those of the source.

Consider `NC(=O)c1ccc[n+]([C@@H]2O[C@H](COP(=O)(O)OP(=O)(O)OC[C@H]3O[C@@H](n4cnc5c(N)ncnc54)[C@H](OP(=O)(O)O)[C@@H]3O)[C@@H](O)[C@H]2O)c1` [NADP^+], for which, in data set [1], the Kd worked out at 3.7 µM.

Take `NC(=O)C1=CN([C@@H]2O[C@H](COP(=O)(O)OP(=O)(O)OC[C@H]3O[C@@H](n4cnc5c(N)ncnc54)[C@H](OP(=O)(O)O)[C@@H]3O)[C@@H](O)[C@H]2O)C=CC1` [NADPH]: the Kd in data set [2] worked out at 51.8 µM; in data set [3], 0.3 µM.

B1: human flavin-containing monooxygenase 3 (hFMO3), N61S variant (Homo sapiens; N61S) (protein)
chain: T1 sequence (P31513 2-532) with N60S
Turning to B1, in data set [4], the Km (in general, the concentration of substrate that gives half-maximal velocity) amounted to 14.8 ± 3.4 µM; the kcat (as a rule, the maximal rate divided by the concentration of active sites) turned out to be 0.00733 s⁻¹; the kcat/Km (as a rule, the second-order rate constant that governs catalysis at low substrate concentration) was 500 M⁻¹ s⁻¹. In addition, in data set [5], the Km stood at 417.3 ± 74.6 µM, the kcat is 0.0333 s⁻¹ and the specificity constant (kcat/Km) is 83.3 M⁻¹ s⁻¹. Further, in data set [6], the Km came to 8652.1 ± 351.6 µM, the kcat is 0.118 s⁻¹ and the kcat/Km is 13.3 M⁻¹ s⁻¹.

B2: human flavin-containing monooxygenase 3 (hFMO3), wild type (Homo sapiens) (protein)
chain: T1 sequence (P31513 2-532)
Consider B2, for which, in data set [6], the Km stood at 14.9 ± 2.0 µM, the kcat turned out to be 0.14 s⁻¹ and the kcat/Km came to 9330 M⁻¹ s⁻¹. Besides, in data set [7], the Km is 21.7 ± 4.6 µM, the kcat turned out to be 0.045 ± 0.00333 s⁻¹ and the kcat/Km is 2000 M⁻¹ s⁻¹.
